[35S]GTPγS binding (G-protein activation), EC50 and Ki data for 5 substances are collected here from PMC8026774.

The target of assay [1] is MOR-1C-PK (mouse).
Assay [2] deals with MOR-TR-PK (mouse).
Assay [3] deals with MOR-1A-PK (mouse).
The target of assay [4] is MOR-1-PK (mouse) (UniProt P42866).
Assay [5] deals with MOR-1E-PK (mouse).
In assay [6] the target is MOR-1B1-PK (mouse).
Assay [7] concerns the target MOR-1O-PK (mouse).
Assay [8] concerns the target MOR-1O (untagged) (mouse). Briefly: radioligand binding.
In assay [9] the target is MOR-1O-PK (mouse). Briefly: radioligand binding.

endomorphin-2 (peptide): the [35S]GTPγS binding (G-protein activation), EC50 in [1] stood at 0.111 µM; in [2], 0.055 µM; in [3], 0.131 µM; in [4], 0.09 µM; in assay [5], 0.101 µM; in assay [6] it was 0.367 µM. The substance further returned a [35S]GTPγS binding (G-protein activation), EC50 in [7] of 0.335 µM.

For the substance [Met^5]enkephalin-Arg^6,Phe^7 (peptide), the [35S]GTPγS binding (G-protein activation), EC50 in [1] came out at 0.069 µM; in [2], 0.073 µM; in assay [3], 0.013 µM; in [4], 0.016 µM; in assay [6], 0.033 µM; in [7] it was 0.082 µM.

For the substance endomorphin-1 (peptide), the [35S]GTPγS binding (G-protein activation), EC50 in [1] came out at 0.116 µM; in [2], 0.107 µM; in [3], 0.086 µM; in [4], 0.044 µM; in assay [5] it was 0.042 µM; in [6], 0.113 µM. In assay [7], this substance yielded a [35S]GTPγS binding (G-protein activation), EC50 of 0.282 µM.

“β-endorphin (from UniProt P01189) (peptide)” gave a [35S]GTPγS binding (G-protein activation), EC50 in assay [7] of 0.192 µM. Besides, the Ki in assay [8] was 0.0133 µM; in assay [9], 0.0382 µM.

Take DAMGO (peptide): the [35S]GTPγS binding (G-protein activation), EC50 in assay [1] stood at 0.195 µM; in assay [2] it was 0.048 µM; in assay [3], 0.039 µM; in [5] it was 0.029 µM; in assay [6], 0.11 µM.
